Source: patent publication US20050221478A1, “Control of es cell self renewal and lineage specification, and medium therefor” (University of Edinburgh, priority 2002, published 2005)

B1: activin A: growth factor added to the culture medium at 5 ng/ml (protein, UniProt P08476 311-426, looked up)
Inhibin beta A chain: GLECDGKVNICCKKQFFVSFKDIGWNDWIIAPSGYHANYCEGECPSHIAGTSGSSLSFHSTVINHYRMRGHSPFANLKSCCVPTKLRPMSMLYYDDGQNIIKKDIQNMIVEECGCS
B2: BMP4: bone morphogenetic protein, agonist of a receptor of the TGF-β superfamily (protein, UniProt P12644 293-408, looked up)
Bone morphogenetic protein 4: SPKHHSQRARKKNKNCRRHSLYVDFSDVGWNDWIVAPPGYQAFYCHGDCPFPLADHLNSTNHAIVQTLVNSVNSSIPKACCVPTELSAISMLYLDEYDKVVLKNYQEMVVEGCGCR

Legend:
ES cells [1] = experiment: Serum-free medium and transient growth factor stimulation: numbers of undifferentiated ES cells; format: cell-based; settings: factor continuously present in LIF and BMP4 medium
Experimental: ES cells were grown initally in a medium comprising DMEM F12 plus neurobasal medium (ratio 1:1) supplemented with N2-B27. ES cells were plated at very low density, about 1000-10,000 cells on a 3.5 cm diameter plate and grown on in the same medium supplemented with LIF and BMP4. […]
We observed enhanced numbers of undifferentiated ES cells, indicating increased proliferation or increased ES cell survival, or both.
After more (5-6) passages the rank order of efficacy changed to:—

ES cells [2] = experiment: Extended passaging of ES cells in serum free, feeder cell free defined culture media; format: cell-based, murine; settings: after multiple passages in serum free medium
From the text: When using the LIF and BMP4-containing medium of a specific embodiment of the present invention extended passaging of ES cells is possible. In one example, murine ES cells have been maintained for more than 20 passages over a three month period. Cells were passaged every 2-4 days depending on the plating cell density, though occasionally cells were passaged 7-10 days after plating at low density.
In an alternative embodiment, it is an option not to remove the FGF receptor inhibitor. […] ES-cells can be grown in culture for at least 20 passages in. N2B27 medium in the presence of LIF and an FGF inhibitor, in the absence of BMP. If the FGF receptor inhibitor is not removed from the medium, it is preferred that it is a specific inhibitor and has little or no activity on other receptors.
N2B27 (1:1 mixture of DMEM/F12 medium supplemented with modified N2 (25 μg/ml insulin, 100 μg/ml apo-transferrin, 6 ng/ml progesterone, 16 μg/ml putrescine, 30 nM sodium selenite and 50 μg/ml bovine serum albumin) and Neurobasal medium supplemented with B27)
ES cells were cultured in 0.1% gelatin coated dishes in N2B27 medium supplemented with LIF (100 U/ml) and BMP4 (10 ng/ml). For passaging, a standard protein-free cell dissociation buffer was used to dissociate cells.
The plating density of the cells was approximately 1-5×10^4/cm^2. […]

ES cells [3] = experiment: Self-renewal of pluripotent cells with agonists of a receptor of the TGF-β superfamily or FGF receptor inhibitor; format: cell-based

Molecule | effect when continuously present (ES cells [1]) | differentiation of ES cells in the presence of BMP4 but absence of LIF (ES cells [2]) | result as agonist of a receptor of the TGF-β superfamily for self-renewal (ES cells [3])
TGFβ: growth factor added to the culture medium at 1-2 ng/ml | progressive differentiation of the ES cells | – | –
B1 | progressive differentiation of the ES cells | – | –
B2 | – | differentiated into large flat cells of characteristic morphology | Good results
